Values quoted from earlier work in article PMC4737190.
Where “and” joins values, the source holds several entries; their conditions need not be identical. Equal entries are not always repeated.

Biological target: linear (Met1-linked) di-ubiquitin (Homo sapiens) (UniProt P0CG47)

Sequence of NEMO UBAN (Q9Y6K9 242-350): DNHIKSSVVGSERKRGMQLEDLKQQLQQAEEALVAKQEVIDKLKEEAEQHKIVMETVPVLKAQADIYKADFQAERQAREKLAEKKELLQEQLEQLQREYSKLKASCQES

NEMO UBAN (from UniProt Q9Y6K9)
Kd: 1600 nM and 3700 nM
